Measured values published in US20160031967A1 (Affibody, published 2016).

Legend:
[1] = target: T1, human FcRn (Biorbyt, cat. no. orb84388) (human, UniProt P55899 24-297; P61769 21-119, limits assumed); assay: ELISA titration of biotinylated human FcRn, pH 6.0
T1 construct: Bought protein; Biotinylated in AlphaLISA and ELISA; also called biotinylated human FcRn
Method: (§1) ELISA KD analysis of FcRn binding Z variants: A selection of FcRn binders was subjected to an analysis of the response against a dilution series of biotinylated human FcRn using ELISA at both pH 6.0 and pH 7.4 as described above. […] As a background control, all Z variants were also assayed with no target protein added. […] Data were analyzed using GraphPad Prism 5 and non-linear regression and KD values (the half maximal effective concentration) were calculated.
(§2) Periplasm samples were incubated with a serial dilution of biotinylated human FcRn.

[2] = target: T1, human FcRn (Biorbyt, cat. no. orb84388); assay: ELISA titration of biotinylated human FcRn, pH 7.4
Method: as §1, §2

| Kd [1] | Kd [2] | Binder |
| --- | --- | --- |
| 1.2 nM | 2.3 nM | Z13586-ABD fusion (designed binder, domain: GA3; periplasmic Z-ABD fusion) AQHDEALEVDAKYAKELKDAGHEIRWLPNLTFDQRVAFIHKLRDDPSQSSELLSEAKKLNDSQAPKVDYVLAEAKVLANRELDKYGVSDYYKNLINNAKTVEGVKALIDEILAALPYVPG |
| 1.4 nM | 2.2 nM | Z13783-ABD fusion (designed binder, domain: GA3; periplasmic Z-ABD fusion) AQHDEALEVDAKYAKEIEQAGHEIRWLPNLTFDQRVAFIHKLRDDPSQSSELLSEAKKLNDSQAPKVDYVLAEAKVLANRELDKYGVSDYYKNLINNAKTVEGVKALIDEILAALPYVPG |
